Where a chain is given by its changes, count along the chain named. Names may count otherwise.
B1: DksA (natural protein, E. coli)
chain: MQEGQNRKTSSLSILAIAGVEPYQEKPGEEYMNEAQLAHFRRILEAWRNQLRDEVDRTVTHMQDEAANFPDPVDRAAQEEEFSLELRNRDRERKLIKKIEKTLKKVEDEDFGYCESCGVEIGIRRLEARPTADLCIDCKTLAEIREKQMAG
notes: DksA used for cryo-EM, with ppGpp (2 mM) in the sample; also called global transcriptional regulator DksA
B2: DksA D137A (natural protein)
chain: B1 chain with D137A

Key:
[1] = molecular target: T1, RNA polymerase β' subunit (E. coli, UniProt P0A8T7 1-1407); assay: cryo-EM structure; RP-DksA/ppGpp: RNAP (20 μM) preincubated with DksA (100 μM) and ppGpp (2 mM) 5 min at 37 °C in 10 mM HEPES pH 8.0, 50 mM NaCl, 0.1 mM EDTA, 5 mM DTT, 5 mM MgCl2, then rrnBP1 DNA (40 μM) 5 min at 37 °C; 8 mM CHAPSO; two classes, RP1-DksA/ppGpp (3.62 Å) and RP2-DksA/ppGpp (3.58 Å); conditions: both partners purified
T1 construct: RNA polymerase β' subunit, E. coli; As it stands in the holoenzyme m1; also called β’clamp; β’clamp-toe (β’CT)

[2] = molecular target: T2, RNA polymerase β subunit (E. coli, UniProt P0A8V2 1-1342); assay: as above; conditions: both partners purified
T2 construct: RNA polymerase β subunit, E. coli; As it stands in the holoenzyme m1; also called βlobe/Si1; βgate loop (βGL)

[3] = molecular target: ΔσAL RNAP (wild-type core RNAP with σ^70 lacking the acidic loop) (E. coli) (UniProt P0A7Z4)
[4] = molecular target: Δσ1.1-RNAP (wild-type core RNAP with σ^70 lacking region 1.1) (E. coli) (UniProt P0A7Z4)
[5] = molecular target: wild-type RNAP (core RNAP with wild-type σ^70, for in vitro transcription) (E. coli) (UniProt P0A7Z4)
[6] = molecular target: β′D256A RNAP (core RNAP with β′ D256A and wild-type σ^70) (E. coli) (UniProt P0A7Z4)

| Binder | binding result [1] | binding result [2] | K (d,app) of DksA from inhibition of in vitro transcription from rrnBP1 (DksA 10 nM to 10 μM), +ppGpp (100 μM) [3] [nM] | K (d,app) of DksA from inhibition of in vitro transcription from rrnBP1 (DksA 10 nM to 10 μM), −ppGpp [3] [nM] | K (d,app) of DksA from inhibition of in vitro transcription from rrnBP1 (DksA 10 nM to 10 μM), −ppGpp [4] [µM] | K (d,app) of DksA from inhibition of in vitro transcription from rrnBP1 (DksA 10 nM to 10 μM), +ppGpp (100 μM) [5] [nM] | K (d,app) of DksA from inhibition of in vitro transcription from rrnBP1 (DksA 10 nM to 10 μM), −ppGpp [5] [nM] | K (d,app) of DksA from inhibition of in vitro transcription from rrnBP1 (DksA 10 nM to 10 μM), +ppGpp (100 μM) [6] [nM] | K (d,app) of DksA from inhibition of in vitro transcription from rrnBP1 (DksA 10 nM to 10 μM), −ppGpp [6] [µM] | K (d,app) of DksA D137A from inhibition of in vitro transcription from rrnBP1 (DksA 10 nM to 10 μM), +ppGpp (100 μM) [5] [nM] | K (d,app) of DksA D137A from inhibition of in vitro transcription from rrnBP1 (DksA 10 nM to 10 μM), −ppGpp [5] [µM] |
| --- | --- | --- | --- | --- | --- | --- | --- | --- | --- | --- | --- |
| B1 | binds | binds | 1150 | 3000 | > 10 | 860 | 2200 | 1640 | 4.54 | – | – |
| B2 | – | – | – | – | – | – | – | – | – | 2440 | 3.9 |
